Where “and” joins values, the source holds several entries; their conditions need not be identical. Equal entries are not always repeated.
Legend:
[1] = biological target: Mos1 transposase (containing the solubilizing mutation T216A), hydrogenated (Drosophila mauritiana); experiment: SAXS + SANS
[2] = biological target: Mos1 transposase (containing the solubilizing mutation T216A), hydrogenated (Drosophila mauritiana); experiment: SEC-MALS
[3] = biological target: Mos1 transposase (containing the solubilizing mutation T216A), hydrogenated (Drosophila mauritiana); experiment: […], room temperature, 20 mM Tris pH 7.5, 0.3 M KCl, 1 mM DTT
[4] = biological target: Mos1 transposase (containing the solubilizing mutation T216A), hydrogenated (Drosophila mauritiana); experiment: SAXS + SANS; remark: listed apart in the source
[5] = biological target: N130 Mos1 (the N-terminal 130 amino acids of Mos1 transposase, DNA-binding domain) (Drosophila mauritiana); experiment: SEC-MALS
D-Mos1 transposase = biological target: T1, D-Mos1 transposase (UniProt Q7JQ07 1-345, T216A); experiment: SANS contrast variation
T1 sequence: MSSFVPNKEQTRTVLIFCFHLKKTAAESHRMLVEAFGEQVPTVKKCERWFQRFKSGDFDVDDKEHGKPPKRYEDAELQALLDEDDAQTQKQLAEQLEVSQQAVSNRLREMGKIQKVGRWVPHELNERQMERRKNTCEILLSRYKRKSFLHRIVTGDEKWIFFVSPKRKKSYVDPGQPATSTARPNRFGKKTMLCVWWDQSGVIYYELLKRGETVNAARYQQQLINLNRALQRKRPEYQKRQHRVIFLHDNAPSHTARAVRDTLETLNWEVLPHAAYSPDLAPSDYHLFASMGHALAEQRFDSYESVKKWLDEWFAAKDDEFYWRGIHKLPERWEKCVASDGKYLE

H-Mos1 transposase = biological target: T2, H-Mos1 transposase (UniProt Q7JQ07 1-345, T216A)
T2 sequence: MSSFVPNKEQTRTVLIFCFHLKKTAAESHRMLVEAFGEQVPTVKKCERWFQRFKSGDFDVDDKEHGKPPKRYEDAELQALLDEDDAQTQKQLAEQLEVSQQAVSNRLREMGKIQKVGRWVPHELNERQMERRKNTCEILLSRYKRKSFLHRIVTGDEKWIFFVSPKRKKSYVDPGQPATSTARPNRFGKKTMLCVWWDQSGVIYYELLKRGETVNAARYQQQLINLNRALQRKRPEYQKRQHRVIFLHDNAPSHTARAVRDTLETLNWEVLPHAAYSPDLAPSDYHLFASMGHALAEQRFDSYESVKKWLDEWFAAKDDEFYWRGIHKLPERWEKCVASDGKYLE

## Mos1 transposase (containing the solubilizing mutation T216A), hydrogenated (enzyme)
[1]
  stoichiometry N: 2
[2]
  stoichiometry N: 2
[3]
  stoichiometry N: 2
[4]
  stoichiometry N: 2

## N130 Mos1 (the N-terminal 130 amino acids of Mos1 transposase, DNA-binding domain) (domain or fragment)
[5]
  stoichiometry N: 2 and 4

B1: 50-mer IR DNA (SEC2 duplex) (dsDNA)
DNA 1: TTTAAAAAAAACGACATTTCATACTTGTACACCTGATAGTTTCTATATTC
DNA 2: GAATATAGAAACTATCAGGTGTACAAGTATGAAATGTCGTTTTTTTTAAA
D-Mos1 transposase
  binding result: binds
H-Mos1 transposase
  binding result: binds

Source: publication PMC3561948
